From patent US20260209387A1, “SINGLE-DOMAIN ANTIBODY FOR INHIBITION OF NEUTROPHIL ELASTASE ACTIVITY” (UNIVERSITE DE LIEGE, priority 2023, published 2026)

Experiments:
[1] = biological target: T1, human proteinase 3 (hPR3) (Homo sapiens, UniProt P24158); assay: BLI binding to other serine proteases: hPR3; details: 50 nM protease
T1 construct: purchased EPC (Elastin Products Company)
T1 sequence (P24158 28-248): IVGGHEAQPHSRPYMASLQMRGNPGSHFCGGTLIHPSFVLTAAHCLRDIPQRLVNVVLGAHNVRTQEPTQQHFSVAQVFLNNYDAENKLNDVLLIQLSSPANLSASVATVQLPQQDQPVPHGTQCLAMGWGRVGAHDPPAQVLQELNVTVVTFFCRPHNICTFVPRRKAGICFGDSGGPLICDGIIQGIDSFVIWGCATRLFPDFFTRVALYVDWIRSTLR
Procedure: (§1) The specificity of NbE201 for hNE was also investigated by BLI. Biotinylated NbE201 (10 μg/mL) was immobilized on streptavidin biosensors (SA, Sartorius) following provider's indications. The biosensors were then immersed in a 50 nM solution of a serine protease. The proteases tested were human cathepsin G (hCG), human proteinase 3 (hPR3), mouse pancreatic elastase (mPE), mouse neutrophil elastase (mNE) and porcine pancreatic elastase (pPE). hNE was used a positive control. The association and dissociation were measured for 70 s and 320 s respectively, in kinetic buffer (KB, Sartorius). The experiments were carried out at 30° C. in 384-wells black-bottom microplates in polypropylene (Greiner Bio-One, Belgium) and with orbital agitation (1000 rpm).

[2] = Heat-induced unfolding by far UV-CD at 206 nm; assay type: physicochemical; details: far UV-CD 206 nm; average of three batches; pH 7
Procedure: 1.12.1. Preparation of the samples and measurements. Samples of NbE201 in 0.05 M NaP buffer pH 7 were prepared at a protein concentration of 0.2 mg mL-1. All the experiments were carried out in 1 mm quartz cell and a JASCO J-810 CD spectrophotometer equipped with a Peltier cell-holder. Mineral oil was added on the top of the sample to avoid sample evaporation. The CD spectrum of the native and denatured states of the protein were recorded from 190 nm to 260 nm at 25° C. and at 97° C. 61 data points were recorded with a 1 nm data interval, a data pitch of 0.1 nm, 2 s integration time, a bandwidth of 1 nm and a scanning speed of 50 nm/min. Heat-induced unfolding was monitored by far UV-CD at 206 nm. […] Data were acquired with a reading frequency of 0.05 s^−1 using a 4 s integration time and a 1 nm bandwidth. […]
1.12.2. […] The transition curves obtained were analyzed based on a two-state (N ? U) model and Equation 1 where x is the temperature during the analysis and a=−(ΔHm (1−x/Tm))/RT (doi: 10.1016/j.jmb.2008.11.046), and yobs is the CD signal at 206 nm at a given temperature (x), and YN and YU are the values of these signals for the native and denatured states, respectively at 273K. p and q are the slopes of the pre- and post-transition baselines, respectively, R is the gas constant, and T is the absolute temperature. […]

[3] = biological target: T2, mNE (Mus musculus, UniProt Q3UP87); assay: Affinity of NbE201 for mNE by BLI; assay type: binding
T2 sequence (Q3UP87 27-265): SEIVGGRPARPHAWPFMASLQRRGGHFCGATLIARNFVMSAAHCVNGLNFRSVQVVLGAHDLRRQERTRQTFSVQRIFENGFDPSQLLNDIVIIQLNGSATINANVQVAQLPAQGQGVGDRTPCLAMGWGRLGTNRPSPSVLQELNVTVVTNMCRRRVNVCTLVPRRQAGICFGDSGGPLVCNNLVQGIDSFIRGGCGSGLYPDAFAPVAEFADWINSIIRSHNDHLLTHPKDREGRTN
Procedure: For mNE, NbE201_Cter Biot was immobilized on SA biosensors (Sartorius) via the C-terminal biotin following the provider's indications. Then, the biosensors were immersed in a solution of mNE at different concentrations (100-50-25-12.5-6.25-3.125 nM). Association and dissociation kinetics were measured for 300 s and 600 s respectively. All the experiments (for both hNE and mNE) were carried out at 30° C. in 384-wells black-bottom microplates in polypropylene (Greiner Bio-One, Belgium) and with orbital agitation (1000 rpm). The obtained sensorgrams were fitted to a 1:1 model by using the Data Analysis Octet Software Version 10.0 (Sartorius) to derive the rate constants for association (kon) and dissociation (koff) and the equilibrium dissociation constant (KD-koff/kon).

[4] = system: mouse pancreatic elastase (mPE); assay: BLI binding to other serine proteases: mPE; details: 50 nM protease
Procedure: as §1

binding to hPR3 by BLI [1]: does not bind to the other proteases | koff [3]: 0.019 s⁻¹ | kon [3]: 390000 M⁻¹ s⁻¹ | binding to mPE by BLI [4]: does not bind to the other proteases
B1: NbE201: anti-hNE ISVD (VHH/nanobody) from immunized lama, amino acid sequence SEQ ID NO: 4 (protein)
VHH: QVQLQESGGGLVQAGGSLRLSCVVPGRTISLYRMGWFRQAPGKEREFVAGINWSGDMTDYVDSVKGRFTISRDNAKNTVYLEMNSLKPEDTAIYYCTADPKLLPLADSSYGYWGQGTQVTVSS
apparent temperature of unfolding (Tm^app) [2]: 70.7±1.5 °C
